{"source": "paper PMC5959852", "about": "(2018)", "molecular_target": "T1, Hif-1α CAD (Homo sapiens, UniProt Q16665)", "T1 chain": "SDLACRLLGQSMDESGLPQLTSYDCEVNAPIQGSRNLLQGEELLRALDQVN", "experiment": "stopped-flow"}
{"binder": "CBP TAZ1 (protein) not shown", "values": [{"measurement": "Kd", "result": 3.4, "unit": "nM"}]}
